± gives the standard deviation of the averaged measurements.
Each sequence was assayed on Saccharomyces cerevisiae (assay: protein stability index of tFT-peptide fusion (C-terminal peptide) (PSI (0-1 scale)); higher = more stable (slower turnover)). Settings: genetic background: wild type; temperature: 30 C.
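Also: PSI is a weighted mean of sequencing reads over stability bins, variants kept only with over 10 reads, mCherry proximal and sfGFP distal, peptide attached via GGGS linker.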

Sequence | protein stability index
PARPLFAPSFFT | 0.699 ± 0.047
PASSAPLSLLPC | 0.655 ± 0.084
PASSSFVCAVSR | 0.783 ± 0.091
PATRHSRLPPAS | 0.67 ± 0.018
PATRIDAFPPVP | 0.685 ± 0.022
PAVARPLGPPPY | 0.714 ± 0.045
PAVRGEMYLGVG | 0.685 ± 0.014
PCAFSLPPLQIP | 0.7 ± 0.012
PCGGGGRECVRG | 0.808 ± 0.1
PCLPPPLRLPPN | 0.631 ± 0.054
PCLVLSLYSDLP | 0.68 ± 0.032
PCPPAPPRFLLR | 0.732 ± 0.016
PCPPRSLPPPTS | 0.835 ± 0.16
PCSSFPTFPRRL | 0.715 ± 0.017
PCVCLRWTGKAF | 0.532 ± 0.031
PCVPSRTISLPE | 0.684 ± 0.031
PDGGFSSVVSLR | 0.686 ± 0.076
PDRQNLSRPEKD | 0.702 ± 0.0092
PDRSLASPPTTR | 0.711 ± 0.069
PDSLCLSPPSLP | 0.686 ± 0.017
PDTCRYTAFHFH | 0.586 ± 0.02
PDVFLLHASPPG | 0.66 ± 0.098
PEKRDIQSGIVD | 0.696 ± 0.024
PFALADSDGDSK | 0.683 ± 0.059
PFFLSFPPSALL | 0.741 ± 0.021
PFFRAPTRPSVF | 0.716 ± 0.043

Sequence | protein stability index
PFLSLPLSPPPP | 0.71 ± 0.092
PFPLPPPPSPTP | 0.699 ± 0.03
PFPPLPLPLPLP | 0.7123 ± 0.00013
PFPRPWRPLPTS | 0.7 ± 0.044
PFPSPSPLARLP | 0.704 ± 0.054
PFSLSLPPPPLP | 0.73 ± 0.026
PFSPLPGPPPPP | 0.733 ± 0.04
PFSPPPSTQPSY | 0.754 ± 0.15
PFSSPPPPCRSC | 0.718 ± 0.023
PFSSVFNPGVLS | 0.644 ± 0.017
PFSVCVSSSLCG | 0.665 ± 0.0076
PFTHRTYREGRT | 0.676 ± 0.081
PFVIFHSCFSLV | 0.543 ± 0.011
PGALLPALPPPP | 0.71 ± 0.016
PGFTLLDFCLYH | 0.725 ± 0.0091
PGFVGPWAGGGA | 0.735 ± 0.12
PGGAGKAYGSRL | 0.707 ± 0.012
PGGLVVGAGRED | 0.709 ± 0.033
PGIAVPTGTSYV | 0.617 ± 0.06
PGIVTGCGNTFV | 0.708 ± 0.022
PGNKHYRARNGA | 0.678 ± 0.013
PGPKAAHSKRDR | 0.662 ± 0.058
PGPPFPMANTPF | 0.646 ± 0.048
PGRVAGGCGVLG | 0.64419 ± 0.00049
PGRYTDCCLPNR | 0.682 ± 0.022
PGSLRGATRPNQ | 0.739 ± 0.17

Sequence | protein stability index
PGTVQVGFDIQV | 0.717 ± 0.018
PGWHLDPITALP | 0.712 ± 0.027
PHAEESNSTLSP | 0.765 ± 0.12
PHLAPPPGPLHP | 0.7233 ± 0.0024
PHLEVPARPRGT | 0.7148 ± 0.0042
PHLPSPRPRPPP | 0.722 ± 0.012
PHMRSPTPLLRP | 0.697 ± 0.077
PHNPTFSPPTCP | 0.751 ± 0.027
PHPAPRRPPLPP | 0.687 ± 0.05
PHPRHQPNLRPT | 0.664 ± 0.024
PHPRPPPLSFAP | 0.681 ± 0.035
PHPSPRGTPCPT | 0.646 ± 0.021
PHRPSPPIPLSV | 0.662 ± 0.043
PHRSRPPPTPPV | 0.625 ± 0.061
PHSSSLSPCPSL | 0.687 ± 0.013
PHTHPPASLPPV | 0.638 ± 0.033
PHWGKRINEAHT | 0.6851 ± 0.0029
PHYPQSHPADPV | 0.668 ± 0.016
PIATTSVDAGRS | 0.634 ± 0.019
PICCPLILTRSL | 0.706 ± 0.019
PIHCTVMGATTC | 0.657 ± 0.073
PIPPLPSSRLGV | 0.602 ± 0.037
PIPRAASPLLPM | 0.588 ± 0.007
PISAGGGVVWVE | 0.6491 ± 0.0047
PITSPPQVLLQH | 0.686 ± 0.033
PKTKKEKQKKKV | 0.704 ± 0.034

Sequence | protein stability index
PLCVFHYSSDDY | 0.705 ± 0.054
PLESRPHNAHQR | 0.663 ± 0.09
PLFAPLTPPLPP | 0.734 ± 0.033
PLFLHSAHVSPI | 0.712 ± 0.071
PLFPPASVVVLY | 0.663 ± 0.036
PLFSASLFSLSL | 0.747 ± 0.068
PLFSPPFLPFSL | 0.711 ± 0.028
PLGQVLRVSSDF | 0.75473 ± 0.00037
PLGVGLVDGEAP | 0.715 ± 0.072
PLHPPPPPPPHP | 0.717 ± 0.064
PLHSLPSRTPPS | 0.7088 ± 0.006
PLHSTPRPPAPG | 0.706 ± 0.098
PLIDRKIKKAIQ | 0.705 ± 0.069
PLISYIEGGPTS | 0.674 ± 0.02
PLLAQSALFVIA | 0.5904 ± 0.0055
PLLHPTGFMGFP | 0.74 ± 0.028
PLLLLLPPPPSP | 0.674 ± 0.033
PLLLPPLPRTPF | 0.622 ± 0.0066
PLLPLSFRIPPF | 0.702 ± 0.014
PLLPPALCPFPP | 0.685 ± 0.029
PLLPPPGALFLL | 0.718 ± 0.057
PLLPSFPPPPAP | 0.51 ± 0.014
PLLPSGIPLFLS | 0.574 ± 0.016
PLLRLVPVPSVI | 0.5537 ± 0.0025
PLLSAFPPRPFP | 0.682 ± 0.12
PLLSSPAHPLPP | 0.687 ± 0.053

Sequence | protein stability index
PLMKHSHSSLPF | 0.7016 ± 0.0043
PLPEQIEATTAS | 0.6921 ± 0.00086
PLPFPPPLPSHR | 0.767 ± 0.11
PLPHPPRPLPPH | 0.717 ± 0.015
PLPLLSLPRFPL | 0.753 ± 0.1
PLPLPFGPPSLP | 0.753 ± 0.15
PLPLPLPQTLPP | 0.6958 ± 0.0067
PLPLPPPFILPT | 0.646 ± 0.052
PLPPHAPPNSAP | 0.656 ± 0.079
PLPPIPPSTPST | 0.726 ± 0.017
PLPPLPPTAPPP | 0.686 ± 0.015
PLPPLSSPRPPP | 0.711 ± 0.071
PLPPPGPPRLSR | 0.723 ± 0.0075
PLPPPHSPPPSA | 0.677 ± 0.011
PLPPPPPLPFHL | 0.79 ± 0.095
PLPPPPPPPPPT | 0.681 ± 0.023
PLPPPPPPPSPS | 0.835 ± 0.11
PLPPPPRPPLRP | 0.6941 ± 0.0052
PLPPPSPSTPPP | 0.796 ± 0.065
PLPPPVFLLFPL | 0.667 ± 0.051
PLPPRPCCLPRP | 0.644 ± 0.098
PLPRAPSPPPPP | 0.694 ± 0.023
PLPRFLTLTLSQ | 0.652 ± 0.023
PLPRLPSSLSRP | 0.697 ± 0.023
PLPSARPPPLPS | 0.685 ± 0.011
PLPSLPPPPPPL | 0.661 ± 0.076

Sequence | protein stability index
PLPSPDLPLTHH | 0.679 ± 0.025
PLPSPRLRFLVP | 0.653 ± 0.036
PLPSVPESPAPP | 0.693 ± 0.045
PLRAPPHPPPVP | 0.623 ± 0.048
PLRPPCPLPPRT | 0.6031 ± 0.0056
PLRPQALDPFLY | 0.6835 ± 0.0028
PLRPSSPLPPPL | 0.71 ± 0.021
PLSNAPRPSQVA | 0.736 ± 0.056
PLSPPHRLTAAL | 0.756 ± 0.19
PLSPPPPPPPPL | 0.707 ± 0.018
PLSPSCCLRRPL | 0.777 ± 0.24
PLSPSLPNPCSL | 0.706 ± 0.0079
PLSPSPPPASLL | 0.702 ± 0.018
PLSPTSPLPSPA | 0.6779 ± 0.0039
PLSQLPAFSPVS | 0.687 ± 0.0095
PLSTPPPLLLTP | 0.719 ± 0.12
PLSYRRFTRLPR | 0.68 ± 0.066
PLTEELCFSAWG | 0.734 ± 0.031
PLTFSFPVRVCD | 0.537 ± 0.028
PLTPPPALILFP | 0.693 ± 0.022
PLTPSPRPPPPS | 0.615 ± 0.15
PLTVPLPSPRLI | 0.645 ± 0.1
PLVPRCFVPPVI | 0.657 ± 0.023
PLWCLPSLPPPF | 0.797 ± 0.031
PLWEYGCLFASS | 0.718 ± 0.03
PLWLPPTPMQII | 0.62 ± 0.013

Sequence | protein stability index
PLYHPSESYNPA | 0.678 ± 0.016
PLYSLVSPPYAT | 0.651 ± 0.019
PMLSDVPTHSIS | 0.719 ± 0.039
PMPPPHLLPSSS | 0.723 ± 0.024
PMSPCPTRSINA | 0.702 ± 0.031
PMVLLDTIQRHT | 0.721 ± 0.033
PNHGEYRNGLYV | 0.715 ± 0.11
PNLKKHFRADEP | 0.6832 ± 0.0036
PNLSPPTPLSAD | 0.649 ± 0.018
PPAAAPPSPPPL | 0.663 ± 0.0036
PPAAPPPQPHLT | 0.696 ± 0.032
PPAEPLRLHAHA | 0.709 ± 0.054
PPALRSPCPSHP | 0.747 ± 0.14
PPAPLAPPPAGC | 0.67 ± 0.038
PPAPLPQSAPTR | 0.645 ± 0.038
PPAPPLFVSSPG | 0.684 ± 0.048
PPAPPPRLPSPP | 0.713 ± 0.098
PPAPSPPPPPPP | 0.622 ± 0.055
PPAPYPPFPLEL | 0.821 ± 0.078
PPCLYPFPPPSR | 0.661 ± 0.017
PPCPPPPPVLPT | 0.66722 ± 0.00014
PPDAPPMPPPQH | 0.738 ± 0.083
PPDYPAPPPPPL | 0.695 ± 0.034
PPEPSYPPLPPR | 0.717 ± 0.011
PPGPPPPPAPPL | 0.724 ± 0.062
PPGVTPLSLCAC | 0.534 ± 0.0088

Sequence | protein stability index
PPHAPKPPPTAA | 0.588 ± 0.077
PPHLSPPPPPLL | 0.6987 ± 0.0054
PPHPFPPPPPPS | 0.665 ± 0.069
PPHPHNPRPSTP | 0.6548 ± 0.0046
PPHPPPLLPFSI | 0.764 ± 0.009
PPIFPSPPPPAD | 0.61 ± 0.011
PPILLAYITPPM | 0.656 ± 0.0076
PPIRLPSPLLPH | 0.7123 ± 0.0056
PPKPAQPPTPSP | 0.693 ± 0.075
PPLAPPTPHPLS | 0.716 ± 0.029
PPLEHPGIAGGR | 0.644 ± 0.1
PPLFPPLAPLHR | 0.72 ± 0.032
PPLFSSTNKNPR | 0.664 ± 0.0076
PPLLAPPTPLPQ | 0.674 ± 0.051
PPLLLRFLTIHL | 0.571 ± 0.027
PPLLPLLCPHSL | 0.738 ± 0.016
PPLLPTPRPPPP | 0.65 ± 0.037
PPLLRSPPPLSP | 0.675 ± 0.022
PPLNPHPPAPTP | 0.724 ± 0.032
PPLPAPPPPFPP | 0.59 ± 0.022
